Test results reported in the supplement of paper PMC9732359.
± gives the uncertainty stated by the source.

Assay: protein stability index of a GFP-peptide fusion (yeast GPS) (PSI 1-4); higher = more stable; sorted into four equal gates, so the index is relative within each strain
Conditions: pdr5∆
In short: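 Tiled 17-residue peptides from yeast proteins were fused downstream of GFP on a plasmid that also expresses Cherry, and the pooled library was carried in yeast. Mid-log cultures grown in leucine-free medium were sorted into four equal gates by GFP/Cherry fluorescence ratio. Plasmids from each gate were PCR-amplified and Illumina-sequenced, and reads were assigned to strains by barcodes. Each peptide's protein stability index is the sum, over gates, of the gate's read frequency multiplied by its gate number.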

Row | Sequence | protein stability index
1 | SLIEDFVDGIANSKKST [SRB7] | 3.35 ± 0.092
2 | SLKGVDPKFRRNHKHAL [RPL29] | 1.77 ± 0.077
3 | SLKNVTEKNREIYKQLN [YIL149C/MLP2] | 2.76 ± 0.11
4 | SLKTKLNSNIRAGVTIP [SNF5] | 2.72 ± 0.051

Same assay, conditions: san1∆

Row | Sequence | protein stability index
5 | SAEDEENIIQRLQAANS [CDC53] | 3.15 ± 0.048
6 | SAETLSELIRTTLDAEK [FAS1] | 2.84 ± 0.044
7 | SAGRLYACISSRPGQSG [RPS8A] | 3.13 ± 0.088
8 | SAILLSETDKRQFLHEL [RPO31] | 2.88 ± 0.087
9 | SALCILKEQELVLYDAE [BRR2] | 2.25 ± 0.11
10 | SANPKKTTITRVEPETF [SWI3] | 3.03 ± 0.052
11 | SAQSIASAKSVRSGVSK [YAR002W/NUP60] | 3 ± 0.069
12 | SASNTAKSTPNTNPSPL [GAL11] | 2.65 ± 0.038
13 | SASRAKNMPVIYNNIVS [RGR1] | 2.31 ± 0.053
14 | SATLPNYEDVGRFLRVP [BRR2] | 3.04 ± 0.048
15 | SAVLLETTLGEMAEKID [PRP8] | 1.21 ± 0.2
16 | SAVVSSNASRRKLINYT [RPN4] | 2.55 ± 0.069
17 | SCEVEEIGLLGGRYVYP [SNU114] | 2.85 ± 0.065
18 | SCGYPAAKTRSYNWGAK [RPL37A] | 3.1 ± 0.085
19 | SCLTFFQALDSEETQFK [ITC1] | 2.7 ± 0.11
20 | SCQGNVIYRNSLYKVSF [YMR129W/POM152] | 2.56 ± 0.064
21 | SCRNPEHTDVIDELIDT [YIL149C/MLP2] | 2.58 ± 0.047
22 | SCTKCPQIVVPDAQNEL [DIS3] | 2.48 ± 0.057
23 | SDAAKEPPGSNTSFSFT [YOR098C/NUP1] | 2.33 ± 0.053
24 | SDAKEQHQSLSRSSSKN [ESC2] | 3.26 ± 0.074
25 | SDAVMAEHSQNKIDQSL [YJL041W/NSP1] | 3.08 ± 0.052
26 | SDDAAQFMKRFPMPYEN [ECM29] | 2.9 ± 0.082
27 | SDEAIIPVNKRRGAHGS [SIR3] | 3.04 ± 0.13
28 | SDKAQLNVVMKNLERLR [SMC4] | 3.13 ± 0.11
29 | SDLRVLSGSISERIVDC [FAS1] | 3.41 ± 0.087

Row | Sequence | protein stability index
30 | SDMQHIERLLKDLVTEN [PRE4] | 2.31 ± 0.17
31 | SDSEIPPLLVYKWTQGI [PRP8] | 2.26 ± 0.068
32 | SEEERKSSPISNEAAKP [YOR098C/NUP1] | 3.07 ± 0.069
33 | SEFDSRVKAMEVDEKPT [RPT5] | 3.08 ± 0.14
34 | SEIIDTNTSKQFQKARN [SRB8] | 3.16 ± 0.056
35 | SEKGLLSATQFTQPALT [FAS1] | 2.73 ± 0.039
36 | SEKRLDHFIHLRNLHMK [SNF12] | 2.74 ± 0.052
37 | SELLGGTFKSTLDREYI [QCR2] | 2.87 ± 0.089
38 | SERIVDCIIRLPVKWET [FAS1] | 1.75 ± 0.12
39 | SETADETLENNIVSVLT [RPN11] | 2.75 ± 0.11
40 | SETQTKDENNTANDQYS [YCG1] | 2.84 ± 0.041
41 | SEYMVFGKLAFPTRLGQ [YJL039C/NUP192] | 2.75 ± 0.067
42 | SFEKLYEGMKLGNHAIT [YMR129W/POM152] | 1.85 ± 0.24
43 | SFFSGLSPPEFLFHAIS [RPO31] | 1.93 ± 0.11
44 | SFIINFISNLPNVSDKY [NUT1] | 2.06 ± 0.15
45 | SFNCENFFQAPQDYVLE [YML031W/NDC1] | 3.09 ± 0.07
46 | SFNVKENQPFHGIKDIP [AAR2] | 2.98 ± 0.11
47 | SFQLSKIRRAARDLLTR [RPS9A] | 2.21 ± 0.045
48 | SFSFSIPSKNTPDASKP [YLR335W/NUP2] | 2.28 ± 0.045
49 | SFTFASSKTSQPKPLFS [YOR098C/NUP1] | 2.27 ± 0.046
50 | SFTPSTVPNINFSGLNG [YOR098C/NUP1] | 2.83 ± 0.056
51 | SFVLNKNTIDFERFPSP [RPN4] | 2.84 ± 0.057
52 | SGAYSYPDFRHYGLAVD [DIS3] | 2.42 ± 0.089
53 | SGDRLTRASKVLEQLSG [RPL11A] | 2.43 ± 0.27
54 | SGEEKGKKVSGFKDEVL [RPS1B] | 3.48 ± 0.11

Row | Sequence | protein stability index
55 | SGFYTFSLLDHHYRPDM [PRE1] | 2.99 ± 0.13
56 | SGGLFGNQQQQLQQQPQ [YGL172W/NUP49] | 2.89 ± 0.093
57 | SGKITDFIKFDAGKLVY [RPS4A] | 2.8 ± 0.06
58 | SGLMVILYTSKIVFILD [RRI2] | 1.44 ± 0.094
59 | SHAIRLGNGVACDPSEI [RGR1] | 2.91 ± 0.17
60 | SHFSPDIKAAVDDSMEL [ITC1] | 1.9 ± 0.15
61 | SIKSQKEEISDQKPIEH [SWI3] | 2.84 ± 0.048
62 | SILESSMFLRIDYSNSQ [RGR1] | 1.59 ± 0.095
63 | SILKRHSFAVLLHERKL [NUT1] | 2.26 ± 0.18
64 | SISGFKEALLGQLLKDH [ARP9] | 1.89 ± 0.08
65 | SISSVVSEDLLDERGHE [RPN4] | 2.85 ± 0.056
66 | SIVNICDIQEEQVDITA [PUP1] | 3.31 ± 0.12
67 | SKDEPVSKAVESKSLLN [SIR4] | 1.37 ± 0.12
68 | SKESWRYDWYQPSKVSS [RTT102] | 1.94 ± 0.074
69 | SKFTKIPPTFDKGAVGP [MED4] | 3.33 ± 0.076
70 | SKGYPIQFLTIGAGVPS [FAS1] | 1.34 ± 0.061
71 | SKKAEKTGTKPAAVFTE [RPL4A] | 2.44 ± 0.072
72 | SKKDFKIIDNPKSFLKK [YMR129W/POM152] | 3.08 ± 0.07
73 | SKKKKNIKKKDTKDALS [RPC53] | 3.21 ± 0.089
74 | SKKRFAAIWTLCKTKMV [RPO21] | 1.24 ± 0.099
75 | SKKRKLNSLTNLLSKRN [SNM1] | 2.84 ± 0.055
76 | SKKVLECLPAEGHDWKA [DIS3] | 1.47 ± 0.1
77 | SKKYQLADWRIRPLSKP [RRP6] | 1.3 ± 0.088
78 | SKLAEEKIRAAGGVVEL [RPL28] | 3.09 ± 0.037
79 | SKNPLSLTEATKTNVDN [YLR335W/NUP2] | 3.28 ± 0.11

Row | Sequence | protein stability index
80 | SKRVYKILSPTMYMEVY [CDC53] | 2.15 ± 0.076
81 | SKSAFSFGSKPTGKEEG [YJL041W/NSP1] | 3.36 ± 0.069
82 | SKSDSDSEERDPKLEKC [ITC1] | 2.62 ± 0.11
83 | SKSGRIFALVFSSNERY [RPN13] | 2.28 ± 0.11
84 | SKTDNIEDPNLSSNITF [YMR153W/NUP53] | 3 ± 0.064
85 | SKVASSLVIIILVKRYS [ECM29] | 1.71 ± 0.094
86 | SKVQFDAKTSYPNEVLK [REC8] | 3.06 ± 0.059
87 | SKVREEVGDVCINELDN [RPO31] | 2.84 ± 0.075
88 | SKVTKKHGAKKVAKRTK [RPL27B] | 3.27 ± 0.2
89 | SKVYFNNQSKEKADYED [RPN12] | 2.67 ± 0.098
90 | SKVYYNLGEYESAVKYA [RPN2] | 2.8 ± 0.084
91 | SKYFIIDSFFLYVLPSF [YMR129W/POM152] | 1.75 ± 0.06
92 | SLADNEIALKGLESLLN [YCS4] | 2.68 ± 0.075
93 | SLAPEADLDSLIIRNDS [RPT3] | 2.77 ± 0.055
94 | SLDSCTAAFTAMICEAK [YJR042W/NUP85] | 2.99 ± 0.081
95 | SLEHELKRSTELLETVS [YIL149C/MLP2] | 2.25 ± 0.071
96 | SLFGSIGDDGYDLLIST [SRB5] | 3.05 ± 0.071
97 | SLGDGTNYYLTTARNDL [CSL4] | 2.83 ± 0.049
98 | SLGHQTSLITAVYGPRS [MTR3] | 2.63 ± 0.061
99 | SLHTKNVFGTLQRHSGI [YLR018C/POM34] | 2.31 ± 0.15
100 | SLIEDFVDGIANSKKST [SRB7] | 3.03 ± 0.062
101 | SLKGVDPKFRRNHKHAL [RPL29] | 1.78 ± 0.082
102 | SLKNVTEKNREIYKQLN [YIL149C/MLP2] | 3.18 ± 0.056
